T1: His-tagged cynomolgus 4-1BB protein (cynomolgus, UniProt A9YYE7 24-186)
T1 construct: Coated on ELISA plates at 2 µg/ml; also called Cyno 4-1BB; soluble cynomolgus 4-1BB; not shown: His tag
T1 sequence: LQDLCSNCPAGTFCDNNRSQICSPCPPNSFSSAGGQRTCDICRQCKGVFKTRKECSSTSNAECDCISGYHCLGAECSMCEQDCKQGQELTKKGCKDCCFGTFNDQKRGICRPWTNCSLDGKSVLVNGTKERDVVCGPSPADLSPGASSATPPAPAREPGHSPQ


What was measured:
[1] = target: T2, human 4-1BB expressed on cells (human, UniProt Q07011 24-255); assay: cell-based or functional assay
[2] = target: T3, His-tagged human 4-1BB protein (human, UniProt Q07011 24-186); assay: ELISA, coated His-tagged 4-1BB, anti-human IgG-HRP
T3 construct: Coated on ELISA plates at 2 µg/ml; also called hu4-1BB; soluble human 4-1BB; not shown: His tag
Method: (§1) His-tagged 4-1BB was coated at 2 μg/ml overnight and then blocked by 2% BSA in PBS. Serially diluted anti-4-1BB nanobodies were incubated with the coated antigen for 1h at room temperature with a reference antibody “Ref mAb”. The resulting plates were washed with PBS/T and incubated with goat anti-human IgG-HRP for 1 h at room temperature. The plates were developed with TMB substrate and analyzed by spectrophotometer at OD 450 nm.

[3] = target: T1, His-tagged cynomolgus 4-1BB protein; assay: ELISA, coated His-tagged 4-1BB, anti-human IgG-HRP
Method: as §1

[4] = target: T2, human 4-1BB expressed on cells; assay: flow cytometry competition with biotinylated human 4-1BB ligand on CHO-K1/human 4-1BB cells
Method: CHO-K1 cells overexpressing human 4-1BB were incubated with biotinylated human 4-1BB ligand (0.3 μg/ml) in the presence of serial diluted anti-41BB nanobodies for 1 h at 4° C. with Ref mAb as the reference antibody. Then, cells were incubated with Alexa Fluor 633-conjugated streptavidin. Binding was measured with an Agilent flow cytometer. As shown in FIG. 2 and Table 3, all of the tested nanobodies could block 4-1BB ligand binding to 4-1BB in a concentration-dependent manner while Ref mAb had no such effect.

[5] = target: T2, human 4-1BB expressed on cells; assay: flow cytometry on CHO-K1/hu4-1BB cells, anti-human Fc-Alexa Fluor 633
Method: (§2) To evaluate the antigen binding property in a cell-based setting, the 4-1BB humanized nanobodies were analyzed for their binding to 4-1BB overexpressed on CHO-K1 cells by FACS.
(§3) Briefly, CHO-K1 cells overexpressing human 4-1BB or cynomolgus 4-1BB were incubated with the serial diluted anti-4-1BB nanobodies for 30 min at 4° C. Then, the cells were incubated with Alexa Fluor 633-conjugated anti-human Fc secondary antibody. Binding was measured with an Agilent flow cytometer.

[6] = target: T4, cynomolgus 4-1BB overexpressed on CHO-K1 cells (cynomolgus, UniProt A9YYE7 24-254); assay: flow cytometry on CHO-K1/Cyno-41BB cells, anti-human Fc-Alexa Fluor 633
T4 construct: whole, on cells; also called CHO-K1/Cyno-41BB; cell surface cyno 4-1BB
Method: as §2, §3

T4 sequence (A9YYE7 entry or part of it): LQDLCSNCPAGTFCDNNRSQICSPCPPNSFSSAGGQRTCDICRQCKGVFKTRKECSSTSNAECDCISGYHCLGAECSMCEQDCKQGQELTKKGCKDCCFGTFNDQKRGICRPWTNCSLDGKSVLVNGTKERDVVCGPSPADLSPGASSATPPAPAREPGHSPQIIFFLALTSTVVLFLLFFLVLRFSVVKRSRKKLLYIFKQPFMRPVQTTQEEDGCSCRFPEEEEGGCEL
T2 sequence (Q07011 24-255): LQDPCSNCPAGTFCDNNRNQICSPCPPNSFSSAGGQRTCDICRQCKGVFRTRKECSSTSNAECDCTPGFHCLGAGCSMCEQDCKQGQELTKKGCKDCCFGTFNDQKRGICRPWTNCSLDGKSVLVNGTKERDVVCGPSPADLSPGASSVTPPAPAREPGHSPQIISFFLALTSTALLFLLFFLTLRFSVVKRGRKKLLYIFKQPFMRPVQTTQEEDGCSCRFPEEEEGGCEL

EC50 (nM) in Jurkat-41BB NFκB reporter assay [1] [nM]	EC50 [2] [nM]	EC50 [3] [nM]	IC50 [4] [nM]	EC50 [5] [nM]	Max (MFI) [5] [MFI]	EC50 [6] [nM]	Max (MFI) [6] [MFI]	Binder
0.031	> 30	29.3	1.42					VV02-1LP-317 (Fc fusion, not shown: a dimerising Fc or GST; small tags and cut ends, Llama nanobody tested as fusion with human IgG1 Fc (N297A)) VHH: EVDLVESGGGLVQPGGSLRLSCAASGFTFSRSAMSWARQAPGKGFEWVSGIYSGGSTYYVDSVEGRFTISRDNAKNTVYLQMNSLKPEDTAVYYCATWGSQQIGVWHEDDYWGQGTQVTVSS
				0.11	39100	0.37	130000	VV02-1LP-263 huNb_2_3 (Fc fusion, not shown: a dimerising Fc or GST, detection by anti-human Fc) VHH: EVQLVESGGGLVQPGGSLRLSCAASGFTFSSSAMSWARQAPGKGFEWVSGIYSGGSTYYTESVKDRFTISRDNAKNTVYLQMNSLKPEDTAVYYCATWGTLRFGVWAEYDHWGQGTLVTVSS
				0.12	40300	0.7	149000	VV02-1LP-263 huNb_3_3 (Fc fusion, detection by anti-human Fc; not shown: Fc part, implied only by the anti-human Fc secondary antibody) VHH: QVQLVESGGGLVQPGGSLRLSCAASGFTFSSSAMSWARQAPGKGFEWVSGIYSGGSTYYTESVKDRFTISRDNAKNSVYLQMNSLKPEDTAVYYCATWGTLRFGVWAEYDHWGQGTQVTVSS
				0.11	42100	0.33	134000	VV02-1LP-263 huNb_1_3 (Fc fusion, not shown: a dimerising Fc or GST, detection by anti-human Fc) VHH: EVQLLESGGGLVQPGGSLRLSCAASGFTFSSSAMSWARQTPGKGFEWVSGIYSGGSTYYTESVKDRFTISRDNSKNTVYLQMNSLKPEDTAVYYCATWGTLRFGVWAEYDHWGQGTQVTVSS
				0.14	38000	0.7	128000	VV02-1LP-263 huNb_3_2 (Fc fusion, not shown: a dimerising Fc or GST, detection by anti-human Fc) VHH: QVQLVESGGGLVKPGGSLRLSCAASGFTFSSSAMSWARQAPGKGFEWVSGIYSGGSTYYTESVKDRFTISRDNAKNSLYLQMNSLRPEDTAVYYCATWGTLRFGVWAEYDHWGQGTQVTVSS
				0.19	23400	0.64	86400	VV02-1LP-263 huNb_2_2 (Fc fusion, not shown: a dimerising Fc or GST, detection by anti-human Fc) VHH: EVQLVESGGGLVQPGGSLRLSCAASGFTFSSSAMSWARQAPGKGLEWVSGIYSGGSTYYTESVKDRFTISRDNAKNTLYLQMNSLRPEDTAVYYCATWGTLRFGVWAEYDHWGQGTLVTVSS
				0.17	23500	0.69	99600	VV02-1LP-263 huNb_1_2 (Fc fusion, not shown: a dimerising Fc or GST, detection by anti-human Fc) VHH: EVQLLESGGGLVQPGGSLRLSCAASGFTFSSSAMSWARQAPGKGLEWVSGIYSGGSTYYTESVKDRFTISRDNSKNTVYLQMNSLKPEDTAVYYCATWGTLRFGVWAEYDHWGQGTLVTVSS
0.036	> 30	4.19	0.995					VV02-2LP-13 (Fc fusion, Llama nanobody tested as fusion with human IgG1 Fc (N297A); not shown: Human IgG1 Fc fragment with N297A, plus the hinge or linker joining it to the nanobody) VHH: AVQLVESGGGLVQPGGSLRLSCAASGFTFSSYAMSWARQVPGKGFEWVAYIYSDGSTYYADSVKGRFTISRDNAKDTVYLHMNSLKFEDMAVYYCATWRSQQVGRWDEYDHWGQGTQVTVSS
0.014	> 30	2.03	0.682					VV02-3LP-83 (Fc fusion, Llama nanobody tested as fusion with human IgG1 Fc (N297A); not shown: Human IgG1 Fc fragment with N297A, plus the hinge or linker joining it to the nanobody) VHH: EVDLVESGGGLVQPGGSLRLSCAASGFTFRSYAMSWARQVPGKGFEWVAYIYSDGSTYYADSVKGRFTISRDNAKDTVYLHMNSLKFEDMAVYYCATWRSQQVGRWDEYDHWGQGTQVTVSS
0.004	> 30	0.11	0.988					VV02-1SP (1)-358 (Fc fusion, not shown: a dimerising Fc or GST; small tags and cut ends, Llama nanobody tested as fusion with human IgG1 Fc (N297A)) VHH: EVQLVESGGGLVQPGGSLMISCAASGFTFSSSAMSWARQVPGKGFEWVAYIYSDGSTYYADSVKGRFTISRDNAKDTVYLHMNSLKFEDMAVYYCATWRSQQVGRWDKYDYWGQGTQVTVSS
0.023	> 30	1.87	0.573					VV02-1SP (1)-55 (Fc fusion, not shown: a dimerising Fc or GST; small tags and cut ends, Llama nanobody tested as fusion with human IgG1 Fc (N297A)) VHH: EVQLVESGGGLVQPGGSLRLSCAASGFTFSSSAMSWARQVPGKGFEWVAYIYSDGSTYYADSVKGRFTISRDNAKDTVYLHMNSLKFEDMAVYYCATWRSQQVGRWDEYDYWGQGIQVTVSS
0.014	> 30	18.2	0.923					VV02-3LP-142 (Fc fusion, Llama nanobody tested as fusion with human IgG1 Fc (N297A); not shown: Human IgG1 Fc fragment with N297A, plus the hinge or linker joining it to the nanobody) VHH: AVQLVESGGGLVQRGGSLKLSCVGSGFDFSDHAMSWARQVPGKGFEWVAYIYSDGSTYYADSVKGRFTISRDNAKDTVYLHMNSLKFEDMAVYYCATWRSQQVGRWDEYDHWGQGTQVTVSS
0.01	> 30	0.11	0.573					VV02-1SP (1)-73 (Fc fusion, not shown: a dimerising Fc or GST; small tags and cut ends, Llama nanobody tested as fusion with human IgG1 Fc (N297A)) VHH: EVDLVESGGGLVQPGGSLRLSCAVSGFTFSNSAMSWARQAPGKEFEWVSSIYSDGKTYYVDSVKGRFTISRDNAKNTVYLQMSSLKPEDTAVYYCATWKTLRVGVWDESDYWGQGTQVTVSS
				0.52	8560			VV02-1SP (1)-73 huNb_3_2 (Fc fusion, detection by anti-human Fc; not shown: Human Fc part, implied only by the anti-human Fc secondary antibody) VHH: EVQLVESGGGLVQPGGSLRLSCAASGFTFSSSAMSWARQAPGKGFEWVSSIYSSGKTYYVESVKGRFTISRDNAKNSLYLQMSSLRAEDTAVYYCATWKTLRVGVWDESDYWGQGTLVTVSS
				0.61				VV02-1SP (1)-73 huNb_1_3 (Fc fusion, detection by anti-human Fc; not shown: Fc part, implied only by the anti-human Fc secondary antibody) VHH: EVDLVESGGGLVQPGGSLRLSCAVSGFTFSSSAMSWARQAPGKEFEWVSSIYSSGKTYYVESVKGRFTISRDNAKNTVYLQMSSLRPEDTAVYYCATWKTLRVGVWDESDYWGQGTLVTVSS
				0.66	9630			VV02-1SP (1)-73 huNb_3_3 (Fc fusion, detection by anti-human Fc; not shown: Human Fc part, implied only by the anti-human Fc secondary antibody) VHH: EVQLVESGGGLVQPGGSLRLSCAVSGFTFSSSAMSWARQAPGKEFEWVSSIYSSGKTYYVESVKGRFTISRDNAKNSVYLQMSSLRPEDTAVYYCATWKTLRVGVWDESDYWGQGTLVTVSS
				0.37	9270			VV02-1SP (1)-73 huNb_2_2 (Fc fusion, detection by anti-human Fc; not shown: Fc part, implied only by the anti-human Fc secondary antibody) VHH: EVQLVESGGGLIQPGGSLRLSCAASGFTFSSSAMSWARQAPGKEFEWVSSIYSSGKTYYVESVKGRFTISRDNAKNTLYLQMSSLRAEDTAVYYCATWKTLRVGVWDESDYWGQGTQVTVSS
				0.49				VV02-1SP (1)-73 huNb_2_3 (Fc fusion, detection by anti-human Fc; not shown: Fc part, implied only by the anti-human Fc secondary antibody) VHH: EVQLVESGGGLVQPGGSLRLSCAVSGFTFSSSAMSWARQAPGKEFEWVSSIYSSGKTYYVESVKGRFTISRDNAKNTVYLQMSSLRPEDTAVYYCATWKTLRVGVWDESDYWGQGTQVTVSS
				0.8	5240			VV02-1SP (1)-73 huNb_1_2 (Fc fusion, detection by anti-human Fc; not shown: Fc part, implied only by the anti-human Fc secondary antibody) VHH: EVQLLESGGGLVQPGGSLRLSCAASGFTFSSSAMSWARQAPGKELEWVSSIYSSGKTYYVESVKGRFTISRDNAKNTLYLQMSSLRAEDTAVYYCATWKTLRVGVWDESDYWGQGTLVTVSS
				27.4	3700			VV02-1SP (1)-73 huNb_3_1 (Fc fusion, detection by anti-human Fc; not shown: Fc part, implied only by the anti-human Fc secondary antibody) VHH: EVQLVESGGGLVQPGGSLRLSCAASGFTFSSSAMSWARQAPGKGFEWVASIYSSGKTYYVESVKGRFTISRDNAKNSLYLQMNSLRAEDTAVYYCARWKTLRVGVWDESDYWGQGTLVTVSS
0.081	11.1		2.05					VV02-1LP-417 (Fc fusion, Llama nanobody tested as fusion with human IgG1 Fc (N297A); not shown: Human IgG1 Fc fragment with N297A, plus the hinge or linker joining it to the nanobody) VHH: QLQLVESGGGLVQPGGSLRLSCAASGFALDYSAIGWFRQAPGKEREGVLCISSSGDVTIYADSVKGRFTISRDNAKNTVYLQMNSLKPEDTAVYYCVAPRICSTYSSDDYWGQGTQVTVSS
0.052	> 30		2.57					VV02-1LP-288 (Fc fusion, not shown: a dimerising Fc or GST; small tags and cut ends, Llama nanobody tested as fusion with human IgG1 Fc (N297A)) VHH: EVQVVESGGGLVQPGGSLRLSCAASGSSLDYSAIGWFRQAPGKEREGVLCISSSGDVTIYADSVKGRFTISRDNAKNTVYLQMNSLKPEDTAVYYCVAPRICSTYSSDDYWGQGTQVTVSS

From patent US20240383993A1 (LANOVA MEDICINES, published 2024)
